Data set [1] has as its system HeLa Kyoto. Put plainly: solubility change mitosis vs G1/S (difference of NP-40 vs SDS log2 ratios) (log2 ratio difference); higher = more soluble in mitosis.
Data set [2] has as its system HeLa Kyoto. Put plainly: melting temperature (median over replicates), in situ; higher = more thermally stable.
Data set [3] concerns HeLa Kyoto. Description: thermal stability score vs G1/S (z-score of summed log2 fold changes over temperatures); higher = more thermally stable than in G1/S.
In data set [4] the test system is HeLa Kyoto. Put plainly: solubility in G1/S (NP-40 vs SDS abundance) (log2 ratio); higher = more soluble. The conditions noted are these: cell cycle stage: G1/S.
[5] abbreviates: cell cycle stage: early G1 (4.5 h after nocodazole release).
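For melting temperature (median over replicates), in situ in this document: HeLa Kyoto cells synchronized by double thymidine or nocodazole block, proteins quantified by TMT10plex mass spectrometry, three independent biological replicates.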
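For solubility change mitosis vs G1/S (difference of NP-40 vs SDS log2 ratios) in this document: synchronized HeLa Kyoto cells (double thymidine block for G1/S, nocodazole release for mitosis), protein amounts in NP-40 versus SDS lysates quantified by mass spectrometry, three biological replicates.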
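For solubility in G1/S (NP-40 vs SDS abundance) in this document: HeLa Kyoto cells arrested at G1/S by double thymidine block, proteins quantified by TMT10plex mass spectrometry in mild NP-40 versus SDS extracts, three biological replicates.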
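For thermal stability score vs G1/S (z-score of summed log2 fold changes over temperatures) in this document: synchronized HeLa Kyoto cells, proteins quantified by TMT10plex mass spectrometry, three biological replicates, mitosis taken 0.5 h after nocodazole release, G1/S directly after double thymidine block.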

Take “MTDNIPLQPVRQKKRMDSRPRAGCCEWLRCCGGGEARPRTVWLGHPEKRDQRYPRNVINNQKYNFFTFLPGVLFNQFKYFFNLYFLLLACSQFVPEMRLGALYTYWVPLGFVLAVTVIREAVEEIRCYVRDKEVNSQVYSRLTARGTVKVKSSNIQVGDLIIVEKNQRVPADMIFLRTSEKNGSCFLRTDQLDGETDWKLRLPVACTQRLPTAADLLQIRSYVYAEEPNIDIHNFVGTFTREDSDPPISESLSIENTLWAGTVVASGTVVGVVLYTGRELRSVMNTSNPRSKIGLFDLEVNCLTKILFGALVVVSLVMVALQHFAGRWYLQIIRFLLLFSNIIPISLRVNLDMGKIVYSWVIRRDSKIPGTVVRSSTIPEQLGRISYLLTDKTGTLTQNEMIFKRLHLGTVAYGLDSMDEVQSHIFSIYTQQSQDPPAQKGPTLTTKVRRTMSSRVHEAVKAIALCHNVTPVYESNGVTDQAEAEKQYEDSCRVYQASSPDEVALVQWTESVGLTLVGRDQSSMQLRTPGDQILNFTILQIFPFTYESKRMGIIVRDESTGEITFYMKGADVVMAGIVQYNDWLEEECGNMAREGLRVLVVAKKSLAEEQYQDFEARYVQAKLSVHDRSLKVATVIESLEMEMELLCLTGVEDQLQADVRPTLETLRNAGIKVWMLTGDKLETATCTAKNAHLVTRNQDIHVFRLVTNRGEAHLELNAFRRKHDCALVISGDSLEVCLKYYEYEFMELACQCPAVVCCRCAPTQKAQIVRLLQERTGKLTCAVGDGGNDVSMIQESDCGVGVEGKEGKQASLAADFSITQFKHLGRLLMVHGRNSYKRSAALSQFVIHRSLCISTMQAVFSSVFYFASVPLYQGFLIIGYSTIYTMFPVFSLVLDKDVKSEVAMLYPELYKDLLKGRPLSYKTFLIWVLISIYQGSTIMYGALLLFESEFVHIVAISFTSLILTELLMVALTIQTWHWLMTVAELLSLACYIASLVFLHEFIDVYFIATLSFLWKVSVITLVSCLPLYVLKYLRRRFSPPSYSKLTS [ATP9A]”: the “solubility change mitosis (log2)” value in data set [1] was found to be 0.0184. For the same sequence, the melting temperature in data set [2] (cell cycle stage: G1/S) amounted to 57.4 °C; in data set [2] (cell cycle stage: mitosis), 58.4 °C. Moreover, the thermal stability score is -4.08 in data set [3] (setting [5]) and -4.01 in data set [3] (cell cycle stage: mitosis). Also, the “solubility in G1/S (log2)” value in data set [4] was -0.6.

As to “MTDQAFVTLTTNDAYAKGALVLGSSLKQHRTTRRLVVLATPQVSDSMRKVLETVFDEVIMVDVLDSGDSAHLTLMKRPELGVTLTKLHCWSLTQYSKCVFMDADTLVLANIDDLFDREELSAAPDPGWPDCFNSGVFVYQPSVETYNQLLHLASEQGSFDGGDQGILNTFFSSWATTDIRKHLPFIYNLSSISIYSYLPAFKVFGASAKVVHFLGRVKPWNYTYDPKTKSVKSEAHDPNMTHPEFLILWWNIFTTNVLPLLQQFGLVKDTCSYVNVLSDLVYTLAFSCGFCRKEDVSGAISHLSLGEIPAMAQPFVSSEERKERWEQGQADYMGADSFDNIKRKLDTYLQ [GYG1]”, in data set [1], the “solubility change mitosis (log2)” value was -0.149. Further, the melting temperature came out at 56.3 °C in data set [2] (cell cycle stage: G1/S) and 52.1 °C in data set [2] (cell cycle stage: mitosis). Moreover, the thermal stability score in data set [3] (setting [5]) is -3.5; in data set [3] (cell cycle stage: mitosis), -5.58. The “solubility in G1/S (log2)” value in data set [4] stood at 0.0958.

As to “MTDSKYFTTNKKGEIFELKAELNNEKKEKRKEAVKKVIAAMTVGKDVSSLFPDVVNCMQTDNLELKKLVYLYLMNYAKSQPDMAIMAVNSFVKDCEDPNPLIRALAVRTMGCIRVDKITEYLCEPLRKCLKDEDPYVRKTAAVCVAKLHDINAQMVEDQGFLDSLRDLIADSNPMVVANAVAALSEISESHPNSNLLDLNPQNINKLLTALNECTEWGQIFILDCLSNYNPKDDREAQSICERVTPRLSHANSAVVLSAVKVLMKFLELLPKDSDYYNMLLKKLAPPLVTLLSGEPEVQYVALRNINLIVQKRPEILKQEIKVFFVKYNDPIYVKLEKLDIMIRLASQANIAQVLAELKEYATEVDVDFVRKAVRAIGRCAIKVEQSAERCVSTLLDLIQTKVNYVVQEAIVVIRDIFRKYPNKYESIIATLCENLDSLDEPDARAAMIWIVGEYAERIDNADELLESFLEGFHDESTQVQLTLLTAIVKLFLKKPSETQELVQQVLSLATQDSDNPDLRDRGYIYWRLLSTDPVTAKEVVLSEKPLISEETDLIEPTLLDELICHIGSLASVYHKPPNAFVEGSHGIHRKHLPIHHGSTDAGDSPVGTTTATNLEQPQVIPSQGDLLGDLLNLDLGPPVNVPQVSSMQMGAVDLLGGGLDSLVGQSFIPSSVPATFAPSPTPAVVSSGLNDLFELSTGIGMAPGGYVAPKAVWLPAVKAKGLEISGTFTHRQGHIYMEMNFTNKALQHMTDFAIQFNKNSFGVIPSTPLAIHTPLMPNQSIDVSLPLNTLGPVMKMEPLNNLQVAVKNNIDVFYFSCLIPLNVLFVEDGKMERQVFLATWKDIPNENELQFQIKECHLNADTVSSKLQNNNVYTIAKRNVEGQDMLYQSLKLTNGIWILAELRIQPGNPNYTLSLKCRAPEVSQYIYQVYDSILKN [AP2B1]”, the “solubility change mitosis (log2)” value in data set [1] is -0.0379. Further, the melting temperature in data set [2] (cell cycle stage: G1/S) came out at 51.6 °C; in data set [2] (cell cycle stage: mitosis), 52 °C. The thermal stability score is -1.91 in data set [3] (setting [5]) and 3.3 in data set [3] (cell cycle stage: mitosis). The “solubility in G1/S (log2)” value in data set [4] is 0.198.

For “MTDTRRRVKVYTLNEDRQWDDRGTGHVSSGYVERLKGMSLLVRAESDGSLLLESKINPNTAYQKQQDTLIVWSEAENYDLALSFQEKAGCDEIWEKICQVQGKDPSVDITQDLVDESEEERFDDMSSPGLELPSCELSRLEEIAELVASSLPSPLRREKLALALENEGYIKKLLELFHVCEDLENIEGLHHLYEIIKGIFLLNRTALFEVMFSEECIMDVIGCLEYDPALSQPRKHREFLTKTAKFKEVIPISDPELKQKIHQTYRVQYIQDMVLPTPSVFEENMLSTLHSFIFFNKVEIVGMLQEDEKFLTDLFAQLTDEATDEEKRQELVNFLKEFCAFSQTLQPQNRDAFFKTLSNMGILPALEVILGMDDTQVRSAATDIFSYLVEYNPSMVREFVMQEAQQNDDVSKKLTEQKITSKDILLINLIIEHMICDTDPELGGAVQLMGLLRTLVDPENMLATANKTEKTEFLGFFYKHCMHVLTAPLLANTTEDKPSKDDFQTAQLLALVLELLTFCVEHHTYHIKNYIINKDILRRVLVLMASKHAFLALCALRFKRKIIGLKDEFYNRYIMKSFLFEPVVKAFLNNGSRYNLMNSAIIEMFEFIRVEDIKSLTAHVIENYWKALEDVDYVQTFKGLKLRFEQQRERQDNPKLDSMRSILRNHRYRRDARTLEDEEEMWFNTDEDDMEDGEAVVSPSDKTKNDDDIMDPISKFMERKKLKESEEKEVLLKTNLSGRQSPSFKLSLSSGTKTNLTSQSSTTNLPGSPGSPGSPGSPGSPGSVPKNTSQTAAITTKGGLVGLVDYPDDDEDDDEDEDKEDTLPLSKKAKFDS [PPP4R3A]”, in data set [1], the “solubility change mitosis (log2)” value was -0.214. For the same sequence, the figures for the melting temperature in data set [2] (cell cycle stage: G1/S) and in data set [2] (cell cycle stage: mitosis) were 52.9 °C and 52 °C, respectively. In addition, the thermal stability score in data set [3] (setting [5]) was -0.659; in data set [3] (cell cycle stage: mitosis) it was 0.337. Moreover, in data set [4], the “solubility in G1/S (log2)” value amounted to 0.0151.

In the case of “MTEGTCLRRRGGPYKTEPATDLGRWRLNCERGRQTWTYLQDERAGREQTGLEAYALGLDTKNYFKDLPKAHTAFEGALNGMTFYVGLQAEDGHWTGDYGGPLFLLPGLLITCHVARIPLPAGYREEIVRYLRSVQLPDGGWGLHIEDKSTVFGTALNYVSLRILGVGPDDPDLVRARNILHKKGGAVAIPSWGKFWLAVLNVYSWEGLNTLFPEMWLFPDWAPAHPSTLWCHCRQVYLPMSYCYAVRLSAAEDPLVQSLRQELYVEDFASIDWLAQRNNVAPDELYTPHSWLLRVVYALLNLYEHHHSAHLRQRAVQKLYEHIVADDRFTKSISIGPISKTINMLVRWYVDGPASTAFQEHVSRIPDYLWMGLDGMKMQGTNGSQIWDTAFAIQALLEAGGHHRPEFSSCLQKAHEFLRLSQVPDNPPDYQKYYRQMRKGGFSFSTLDCGWIVSDCTAEALKAVLLLQEKCPHVTEHIPRERLCDAVAVLLNMRNPDGGFATYETKRGGHLLELLNPSEVFGDIMIDYTYVECTSAVMQALKYFHKRFPEHRAAEIRETLTQGLEFCRRQQRADGSWEGSWGVCFTYGTWFGLEAFACMGQTYRDGTACAEVSRACDFLLSRQMADGGWGEDFESCEERRYLQSAQSQIHNTCWAMMGLMAVRHPDIEAQERGVRCLLEKQLPNGDWPQENIAGVFNKSCAISYTSYRNIFPIWALGRFSQLYPERALAGHP [LSS]”, in data set [1], the “solubility change mitosis (log2)” value turned out to be 0.0123. Further, the melting temperature in data set [2] (cell cycle stage: G1/S) is 52.7 °C; in data set [2] (cell cycle stage: mitosis), 52.6 °C. The thermal stability score came out at 0.214 in data set [3] (setting [5]) and 0.242 in data set [3] (cell cycle stage: mitosis). Besides, the “solubility in G1/S (log2)” value in data set [4] is -0.253.

The record behind these values is the supplement of paper PMC5998384.
